*1 amine or outer side, *2 acyl side, *3 side chain or, on linkers, in order; H or OH if unused. Bridges are numbered along the chain shown (N, C = ends). [ ]: non-standard residue; d: D form. The star is where a group is joined. C20 diacid = O=C(O)CCCCCCCCCCCCCCCCCCC(=O)*; γGlu = O=C(O)[C@H](CCC(=O)[*:2])N[*:1]; Hyp = O=C(O)[C@@H]1C[C@@H](O)CN1; NMeI = CC[C@H](C)[C@H](NC)C(=O)O; Sar = CNCC(=O)O
T1: human amylin receptor 3 (hAMYR3), hCTR2 co-expressed with human receptor activity modifying protein 3 (hRAMP3) (human, UniProt P30988 25-474; O60896 24-148)
T1 sequence (looked up) 1: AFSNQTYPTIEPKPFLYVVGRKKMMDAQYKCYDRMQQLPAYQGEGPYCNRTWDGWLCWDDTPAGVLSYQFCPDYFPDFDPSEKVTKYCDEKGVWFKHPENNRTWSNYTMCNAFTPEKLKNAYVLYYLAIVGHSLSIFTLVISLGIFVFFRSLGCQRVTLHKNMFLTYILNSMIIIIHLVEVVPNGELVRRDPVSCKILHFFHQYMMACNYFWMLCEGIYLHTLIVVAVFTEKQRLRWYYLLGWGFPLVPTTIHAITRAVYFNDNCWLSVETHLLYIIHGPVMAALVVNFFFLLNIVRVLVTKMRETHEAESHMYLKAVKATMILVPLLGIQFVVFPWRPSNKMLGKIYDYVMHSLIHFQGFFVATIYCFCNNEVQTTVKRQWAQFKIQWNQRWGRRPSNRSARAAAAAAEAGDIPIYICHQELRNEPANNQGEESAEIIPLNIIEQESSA
T1 sequence (looked up) 2: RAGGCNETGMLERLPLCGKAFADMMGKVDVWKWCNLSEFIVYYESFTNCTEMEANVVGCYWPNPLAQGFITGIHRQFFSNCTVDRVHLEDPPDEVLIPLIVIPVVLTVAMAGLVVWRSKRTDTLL


Biological target: T1, human amylin receptor 3 (hAMYR3), hCTR2 …
Assay: cell-based or functional assay

Row | Binder | hAMYR3 EC50 (nM); cAMP induction [nM]
1 | {C20 diacid-γGlu}-RCNTATCATERLADFLQRSSF[Sar]A[NMeI]LSSTEVGSNTP-NH2 (disulfide 2-7; SMILES CC[C@H](C)[C@@H](C(=O)N[C@@H](CC(C)C)C(=O)N[C@@H](CO)C(=O)N[C@@H](CO)C(=O)N[C@H](C(=O)N[C@@H](CCC(=O)O)C(=O)N[C@H](C(=O)NCC(=O)N[C@@H](CO)C(=O)N[C@@H](CC(N)=O)C(=O)N[C@H](C(=O)N1CCC[C@H]1C(N)=O)[C@@H](C)O)C(C)C)[C@@H](C)O)N(C)C(=O)[C@H](C)NC(=O)CN(C)C(=O)[C@H](Cc1ccccc1)NC(=O)[C@H](CO)NC(=O)[C@H](CO)NC(=O)[C@H](CCCNC(=N)N)NC(=O)[C@H](CCC(N)=O)NC(=O)[C@H](CC(C)C)NC(=O)[C@H](Cc1ccccc1)NC(=O)[C@H](CC(=O)O)NC(=O)[C@H](C)NC(=O)[C@H](CC(C)C)NC(=O)[C@H](CCCNC(=N)N)NC(=O)[C@H](CCC(=O)O)NC(=O)[C@@H](NC(=O)[C@H](C)NC(=O)[C@@H]1CSSC[C@H](NC(=O)[C@H](CCCNC(=N)N)NC(=O)CC[C@H](NC(=O)CCCCCCCCCCCCCCCCCCC(=O)O)C(=O)O)C(=O)N[C@@H](CC(N)=O)C(=O)N[C@@H]([C@@H](C)O)C(=O)N[C@@H](C)C(=O)N[C@@H]([C@@H](C)O)C(=O)N1)[C@@H](C)O) [[19CD]-isoGlu-R-C( )-NTAT-C( )-ATERLADFLQRSSF-Gly(Me)-A-Ile(Me)-LSSTEVGSNTP-NH2 (Compd. 66)] | 0.3
2 | {C20 diacid}-[γGlu]RCPTATCATERLAHFLQRSSF[Sar]A[NMeI]LSSTEVGSST[Hyp]-NH2 (disulfide 3-8; SMILES CC[C@H](C)[C@@H](C(=O)N[C@@H](CC(C)C)C(=O)N[C@@H](CO)C(=O)N[C@@H](CO)C(=O)N[C@H](C(=O)N[C@@H](CCC(=O)O)C(=O)N[C@H](C(=O)NCC(=O)N[C@@H](CO)C(=O)N[C@@H](CO)C(=O)N[C@H](C(=O)N1C[C@H](O)C[C@H]1C(N)=O)[C@@H](C)O)C(C)C)[C@@H](C)O)N(C)C(=O)[C@H](C)NC(=O)CN(C)C(=O)[C@H](Cc1ccccc1)NC(=O)[C@H](CO)NC(=O)[C@H](CO)NC(=O)[C@H](CCCNC(=N)N)NC(=O)[C@H](CCC(N)=O)NC(=O)[C@H](CC(C)C)NC(=O)[C@H](Cc1ccccc1)NC(=O)[C@H](Cc1c[nH]cn1)NC(=O)[C@H](C)NC(=O)[C@H](CC(C)C)NC(=O)[C@H](CCCNC(=N)N)NC(=O)[C@H](CCC(=O)O)NC(=O)[C@@H](NC(=O)[C@H](C)NC(=O)[C@@H]1CSSC[C@H](NC(=O)[C@H](CCCNC(=N)N)NC(=O)CC[C@H](NC(=O)CCCCCCCCCCCCCCCCCCC(=O)O)C(=O)O)C(=O)N2CCC[C@H]2C(=O)N[C@@H]([C@@H](C)O)C(=O)N[C@@H](C)C(=O)N[C@@H]([C@@H](C)O)C(=O)N1)[C@@H](C)O) [[19CD]-isoGlu-R-C( )-PTAT-C( )-ATERLAHFLQRSSF-Gly(Me)-A-Ile(Me)-LSSTEVGSST-Hyp-NH2 (Compd. 70)] | 0.36
3 | {C20 diacid-γGlu}-RCNTATCATERLADFLQRSSF[Sar]A[NMeI]LSSTEVGSNT[Hyp]-NH2 (disulfide 2-7; SMILES CC[C@H](C)[C@@H](C(=O)N[C@@H](CC(C)C)C(=O)N[C@@H](CO)C(=O)N[C@@H](CO)C(=O)N[C@H](C(=O)N[C@@H](CCC(=O)O)C(=O)N[C@H](C(=O)NCC(=O)N[C@@H](CO)C(=O)N[C@@H](CC(N)=O)C(=O)N[C@H](C(=O)N1C[C@H](O)C[C@H]1C(N)=O)[C@@H](C)O)C(C)C)[C@@H](C)O)N(C)C(=O)[C@H](C)NC(=O)CN(C)C(=O)[C@H](Cc1ccccc1)NC(=O)[C@H](CO)NC(=O)[C@H](CO)NC(=O)[C@H](CCCNC(=N)N)NC(=O)[C@H](CCC(N)=O)NC(=O)[C@H](CC(C)C)NC(=O)[C@H](Cc1ccccc1)NC(=O)[C@H](CC(=O)O)NC(=O)[C@H](C)NC(=O)[C@H](CC(C)C)NC(=O)[C@H](CCCNC(=N)N)NC(=O)[C@H](CCC(=O)O)NC(=O)[C@@H](NC(=O)[C@H](C)NC(=O)[C@@H]1CSSC[C@H](NC(=O)[C@H](CCCNC(=N)N)NC(=O)CC[C@H](NC(=O)CCCCCCCCCCCCCCCCCCC(=O)O)C(=O)O)C(=O)N[C@@H](CC(N)=O)C(=O)N[C@@H]([C@@H](C)O)C(=O)N[C@@H](C)C(=O)N[C@@H]([C@@H](C)O)C(=O)N1)[C@@H](C)O) [[19CD]-isoGlu-R-C( )-NTAT-C( )-ATERLADFLQRSSF-Gly(Me)-A-Ile(Me)-LSSTEVGSNT-Hyp-NH2 (Compd. 68)] | 0.29
4 | {C20 diacid}-[γGlu]RCNTATCATQRLAHFLQRSSF[Sar]A[NMeI]LSSTEVGSGT[Hyp]-NH2 (disulfide 3-8; SMILES CC[C@H](C)[C@@H](C(=O)N[C@@H](CC(C)C)C(=O)N[C@@H](CO)C(=O)N[C@@H](CO)C(=O)N[C@H](C(=O)N[C@@H](CCC(=O)O)C(=O)N[C@H](C(=O)NCC(=O)N[C@@H](CO)C(=O)NCC(=O)N[C@H](C(=O)N1C[C@H](O)C[C@H]1C(N)=O)[C@@H](C)O)C(C)C)[C@@H](C)O)N(C)C(=O)[C@H](C)NC(=O)CN(C)C(=O)[C@H](Cc1ccccc1)NC(=O)[C@H](CO)NC(=O)[C@H](CO)NC(=O)[C@H](CCCNC(=N)N)NC(=O)[C@H](CCC(N)=O)NC(=O)[C@H](CC(C)C)NC(=O)[C@H](Cc1ccccc1)NC(=O)[C@H](Cc1c[nH]cn1)NC(=O)[C@H](C)NC(=O)[C@H](CC(C)C)NC(=O)[C@H](CCCNC(=N)N)NC(=O)[C@H](CCC(N)=O)NC(=O)[C@@H](NC(=O)[C@H](C)NC(=O)[C@@H]1CSSC[C@H](NC(=O)[C@H](CCCNC(=N)N)NC(=O)CC[C@H](NC(=O)CCCCCCCCCCCCCCCCCCC(=O)O)C(=O)O)C(=O)N[C@@H](CC(N)=O)C(=O)N[C@@H]([C@@H](C)O)C(=O)N[C@@H](C)C(=O)N[C@@H]([C@@H](C)O)C(=O)N1)[C@@H](C)O) [[19CD]-isoGlu-R-C( )-NTAT-C( )-ATQRLAHFLQRSSF-Gly(Me)-A-Ile(Me)-LSSTEVGSGT-Hyp-NH2 (Compd. 71)] | 0.18
5 | {C20 diacid}-[γGlu]RCNTATCATQRLAHFLQRSSF[Sar]A[NMeI]LSSTEVGSST[Hyp]-NH2 (disulfide 3-8; SMILES CC[C@H](C)[C@@H](C(=O)N[C@@H](CC(C)C)C(=O)N[C@@H](CO)C(=O)N[C@@H](CO)C(=O)N[C@H](C(=O)N[C@@H](CCC(=O)O)C(=O)N[C@H](C(=O)NCC(=O)N[C@@H](CO)C(=O)N[C@@H](CO)C(=O)N[C@H](C(=O)N1C[C@H](O)C[C@H]1C(N)=O)[C@@H](C)O)C(C)C)[C@@H](C)O)N(C)C(=O)[C@H](C)NC(=O)CN(C)C(=O)[C@H](Cc1ccccc1)NC(=O)[C@H](CO)NC(=O)[C@H](CO)NC(=O)[C@H](CCCNC(=N)N)NC(=O)[C@H](CCC(N)=O)NC(=O)[C@H](CC(C)C)NC(=O)[C@H](Cc1ccccc1)NC(=O)[C@H](Cc1c[nH]cn1)NC(=O)[C@H](C)NC(=O)[C@H](CC(C)C)NC(=O)[C@H](CCCNC(=N)N)NC(=O)[C@H](CCC(N)=O)NC(=O)[C@@H](NC(=O)[C@H](C)NC(=O)[C@@H]1CSSC[C@H](NC(=O)[C@H](CCCNC(=N)N)NC(=O)CC[C@H](NC(=O)CCCCCCCCCCCCCCCCCCC(=O)O)C(=O)O)C(=O)N[C@@H](CC(N)=O)C(=O)N[C@@H]([C@@H](C)O)C(=O)N[C@@H](C)C(=O)N[C@@H]([C@@H](C)O)C(=O)N1)[C@@H](C)O) [[19CD]-isoGlu-R-C( )-NTAT-C( )-ATQRLAHFLQRSSF-Gly(Me)-A-Ile(Me)-LSSTEVGSST-Hyp-NH2 (Compd. 69)] | 0.17
6 | {C20 diacid}-[γGlu]RCGTATCATERLAHFLQRSSF[Sar]A[NMeI]LSSTEVGSNT[Hyp]-NH2 (disulfide 3-8; SMILES CC[C@H](C)[C@@H](C(=O)N[C@@H](CC(C)C)C(=O)N[C@@H](CO)C(=O)N[C@@H](CO)C(=O)N[C@H](C(=O)N[C@@H](CCC(=O)O)C(=O)N[C@H](C(=O)NCC(=O)N[C@@H](CO)C(=O)N[C@@H](CC(N)=O)C(=O)N[C@H](C(=O)N1C[C@H](O)C[C@H]1C(N)=O)[C@@H](C)O)C(C)C)[C@@H](C)O)N(C)C(=O)[C@H](C)NC(=O)CN(C)C(=O)[C@H](Cc1ccccc1)NC(=O)[C@H](CO)NC(=O)[C@H](CO)NC(=O)[C@H](CCCNC(=N)N)NC(=O)[C@H](CCC(N)=O)NC(=O)[C@H](CC(C)C)NC(=O)[C@H](Cc1ccccc1)NC(=O)[C@H](Cc1c[nH]cn1)NC(=O)[C@H](C)NC(=O)[C@H](CC(C)C)NC(=O)[C@H](CCCNC(=N)N)NC(=O)[C@H](CCC(=O)O)NC(=O)[C@@H](NC(=O)[C@H](C)NC(=O)[C@@H]1CSSC[C@H](NC(=O)[C@H](CCCNC(=N)N)NC(=O)CC[C@H](NC(=O)CCCCCCCCCCCCCCCCCCC(=O)O)C(=O)O)C(=O)NCC(=O)N[C@@H]([C@@H](C)O)C(=O)N[C@@H](C)C(=O)N[C@@H]([C@@H](C)O)C(=O)N1)[C@@H](C)O) [[19CD]-isoGlu-R-C( )-GTAT-C( )-ATERLAHFLQRSSF-Gly(Me)-A-Ile(Me)-LSSTEVGSNT-Hyp-NH2 (Compd. 7)] | 0.34
7 | {C20 diacid}-[γGlu]RCPTATCATERLADFLQRSSF[Sar]A[NMeI]LSSTEVGSNTP-NH2 (disulfide 3-8; SMILES CC[C@H](C)[C@@H](C(=O)N[C@@H](CC(C)C)C(=O)N[C@@H](CO)C(=O)N[C@@H](CO)C(=O)N[C@H](C(=O)N[C@@H](CCC(=O)O)C(=O)N[C@H](C(=O)NCC(=O)N[C@@H](CO)C(=O)N[C@@H](CC(N)=O)C(=O)N[C@H](C(=O)N1CCC[C@H]1C(N)=O)[C@@H](C)O)C(C)C)[C@@H](C)O)N(C)C(=O)[C@H](C)NC(=O)CN(C)C(=O)[C@H](Cc1ccccc1)NC(=O)[C@H](CO)NC(=O)[C@H](CO)NC(=O)[C@H](CCCNC(=N)N)NC(=O)[C@H](CCC(N)=O)NC(=O)[C@H](CC(C)C)NC(=O)[C@H](Cc1ccccc1)NC(=O)[C@H](CC(=O)O)NC(=O)[C@H](C)NC(=O)[C@H](CC(C)C)NC(=O)[C@H](CCCNC(=N)N)NC(=O)[C@H](CCC(=O)O)NC(=O)[C@@H](NC(=O)[C@H](C)NC(=O)[C@@H]1CSSC[C@H](NC(=O)[C@H](CCCNC(=N)N)NC(=O)CC[C@H](NC(=O)CCCCCCCCCCCCCCCCCCC(=O)O)C(=O)O)C(=O)N2CCC[C@H]2C(=O)N[C@@H]([C@@H](C)O)C(=O)N[C@@H](C)C(=O)N[C@@H]([C@@H](C)O)C(=O)N1)[C@@H](C)O) [[19CD]-isoGlu-R-C( )-PTAT-C( )-ATERLADFLQRSSF-Gly(Me)-A-Ile(Me)-LSSTEVGSNTP-NH2 (Compd. 67)] | 0.65
